Laboratory results: the supplement of paper PMC10567573

B1: MLH1 (parent)
chain: YNIATRRKALKNPSEEYGKILEVV
B2: PBXIP1 (parent)
chain: EKQKQPRWREGTKDSHDPLPSWAE

Variants of: B1
Assay: protein stability index of a GFP-peptide fusion (GPS, HEK-293T) (PSI 1-6); higher = more stable
Settings: c terminus: a fixed tail appended
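Further: lentivirally expressed fusions sorted by FACS into six bins by GFP to DsRed ratio, PSI derived from sequencing read proportions per bin multiplied by bin number.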

Protein stability index: each site, then its substitutions
T5: L 2.85 | S 3.03 | I 2.17 | W 1.83 | D 3.06 | N 2.57 | C 2.17 | F 2.27 | Y 2 | P 2.82 | A 2.54 | G 2.82 | E 3.54 | V 3.09
R6: V 2.1 | C 1.89 | Q 2.82 | W 1.96 | N 2.85 | D 3.69 | T 2.32 | L 1.79 | P 3.15 | G 2.76 | K 2.99 | Y 1.76 | S 2.7
P13: N 2.99 | I 2.15 | F 1.96 | H 2.94 | Y 2.59 | T 2.89 | R 2.78 | K 3.19 | S 3.05 | C 3.26 | W 2.66 | M 2.27
Y1: M 2.76 | E 3.55 | Q 3.6 | V 2.76 | D 3.69 | S 3.29 | K 3.52 | F 2.43 | I 2.48 | W 2.86 | A 3.18 | N 3.35
E15: M 2.54 | Y 2 | F 2.29 | D 2.7 | H 2.43 | K 2.06 | I 2.46 | W 1.78 | R 2.46 | S 2.49 | A 2.1 | N 2.43 | G 1.76 | V 1.85 | Q 2.15 | P 2.21 | C 2.17 | L 1.99
L21: A 3.69 | H 3.61 | I 2.17 | N 4.33 | D 4.42 | T 3.91 | S 3.76 | Q 3.8 | Y 2.46 | V 3.34 | G 3.52 | C 4.26 | E 4.02 | W 2.34
E22: C 1.75 | M 2.09 | T 2.19 | P 2.49 | F 2.32 | L 2.54 | G 2.42 | A 2.59 | D 3.33 | H 2.43 | V 3.63 | K 2.18 | Y 2.27 | Q 2.42
V23: P 3.41 | F 2.1 | G 3.62 | E 4.21 | A 3.69 | K 3.36 | R 3.22 | C 3.03 | H 3.69 | D 3.65 | Q 3.34 | N 3.43 | I 2.5
E16: C 1.85 | Y 1.88 | A 2.37 | K 2.1 | P 2.17 | F 1.62 | V 2.49 | M 2.15 | G 2.89 | D 2.75 | S 2.71 | R 2.5 | L 1.99
N2: E 3.12 | C 2.18 | Y 2.43 | H 2.07 | G 2.7 | L 1.9 | D 3.14 | F 1.71 | R 2.5 | V 1.87 | M 1.85 | Q 2.51 | T 2.45
I20: P 3.3 | Y 3.18 | W 2.82 | A 3.46 | F 2.39 | D 4.34 | Q 3.8 | G 3.52 | C 3.89 | N 3.54 | E 3.54 | H 3.59 | S 4.11 | V 4.05 | R 3.6 | T 3.62 | M 3.13
I3: F 2.85 | S 3 | M 3.08 | G 2.97 | A 3.11 | D 3.19 | K 2.98 | Q 3.41 | H 2.69 | E 2.74 | N 3.29 | P 3.14 | C 2.69 | R 2.71
K8: R 2.85 | V 2.2 | L 1.99 | D 3.09 | H 2.48 | C 1.87 | E 3.25 | F 2.27 | W 1.94 | G 3.37 | I 2
A4: V 2.49 | W 1.83 | N 3.27 | Q 2.57 | I 2.54 | D 3.15 | E 3 | R 2.97 | C 3.31 | Y 2.12 | H 2.89
S14: W 1.43 | A 2.98 | F 2.01 | D 2.98 | Q 2.79 | E 3.56 | T 2.85 | L 1.78 | N 2.71 | R 2.94
R7: C 2.37 | D 2.84 | K 2.48 | G 2.78 | A 2.5 | T 2.95 | H 2.69 | V 2.39 | P 3.14 | W 1.78 | E 3.66
N12: W 1.94 | A 2.55 | S 2.76 | F 1.97 | E 3.35 | P 3.11 | V 1.98 | G 2.71 | R 3.3 | H 2.74 | Y 2.53 | D 3.32
L10: C 2.84 | V 3.07 | A 3.09 | T 3.14 | K 3.31 | P 3.23 | G 2.99 | H 3 | E 3.53 | R 3.13 | I 3.22 | M 2.86 | F 3.02
A9: S 2.93 | V 2.55 | D 3.2 | W 2.75 | K 2.71 | Q 2.55 | Y 2.09 | L 2.17 | E 2.99
K11: V 2.53 | I 2.04 | M 2.85 | F 1.95 | L 2.43 | E 3.48 | W 2.19 | N 2.69 | S 2.48
Y17: D 4.3 | A 3.52 | S 3.75 | Q 3.97 | N 4.08 | W 2.66 | H 3.53 | R 3.57 | P 4.17 | T 3.72 | V 3.16 | E 4.04 | L 2.63 | M 3.11 | K 3.37 | I 2.95 | C 3.05
G18: K 2.97 | R 2.4 | Y 2.34 | C 2.5 | Q 2.7 | A 2.21 | T 2.19 | L 2.15 | W 1.46 | N 3.13 | P 3.03 | V 1.95 | E 3.29 | D 3.15 | I 2.16 | F 2.16
K19: L 1.63 | I 1.8 | M 2.51 | E 3.37 | V 1.74 | N 3.29 | A 2.5 | C 1.8 | W 1.65 | H 2.42

Variants of: B2
Assay: as above
Settings: c terminus: a fixed tail appended

Protein stability index, by site and new letter:
E24: T 2.39 | Y 3.09 | N 3.02 | H 3.29 | D 1.9 | M 3.16 | C 2.66 | R 3.34 | S 2.34 | I 3.06 | F 3.11 | L 3.02 | A 2.62 | W 1.95 | P 4.12 | K 2.89
A23: I 2.61 | T 2.08 | H 4.04 | L 4.81 | N 4.99 | Y 4.24 | P 3.89 | S 2.01 | Q 2.26 | E 2.39 | F 3.56 | W 2.76 | K 4.51 | M 3.36
W22: N 5.48 | S 4.78 | L 3.24 | Q 5.57 | R 5.4 | T 5.07 | Y 4.85 | P 5.49
